Laboratory results from patent publication US20240360217A1.

Key:
[1] = target: human PD-L1 on tumor cells (human) (UniProt Q9NZQ7); assay: FACS staining of HCT116 cells with the control antibody; triplicates
[2] = target: human PD-L1 on tumor cells (human) (UniProt Q9NZQ7); assay: FACS staining of MDA-MB-231 cells with the control antibody; triplicates

Chain of human PD-L1 on tumor cells (human) (Q9NZQ7 19-290 limits assumed): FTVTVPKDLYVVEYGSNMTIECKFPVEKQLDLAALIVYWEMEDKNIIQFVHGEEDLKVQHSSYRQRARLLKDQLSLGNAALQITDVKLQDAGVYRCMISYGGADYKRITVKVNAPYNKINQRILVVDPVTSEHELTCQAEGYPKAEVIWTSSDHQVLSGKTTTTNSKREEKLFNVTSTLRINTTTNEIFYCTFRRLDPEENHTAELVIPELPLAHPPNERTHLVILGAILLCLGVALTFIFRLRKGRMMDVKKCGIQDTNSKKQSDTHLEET

PD-L1 (MFI) [1]: 10900 MFI
PD-L1 (MFI) [2]: 74600 MFI
Substance: anti-PD-L1 RG7446 MPDL3280A (antibody)
